Laboratory results as given in article PMC7766583 (International Journal of Molecular Sciences, 2020).

Assays:
amyloid beta 1-42 = biological target: T1, amyloid beta 1-42 (human, UniProt P05067 672-713); assay: SPR; cypD captured on an amine-coupled anti-cypD antibody; oligomeric Aβ (Preparation A) injected at 1 μM for 5 min; running buffer 10 mM HEPES pH 7.4, 5 mM Na+, BSA 200 μg/mL, K+ 0-500 mM, Mg2+ 0-50 mM; 25 °C, 20 µL/min; reference-compensated response 5 min after return to buffer; settings: both partners purified
T1 construct: amyloid beta fragment 1-42 (42 amino acids), human, synthetic; numbers count on: the Aβ peptide; Used in an oligomeric form (Preparation A) and a monomeric form (Preparation B); The two forms are told apart by the assay; also called Aβ_(1–42); Aβ; source: synthetic peptide; bought: AnaSpec
T1 sequence (P05067 672-713): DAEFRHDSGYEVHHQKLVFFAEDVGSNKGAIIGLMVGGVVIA

amyloid beta 1-40 = biological target: T2, amyloid beta 1-40 (human, UniProt P05067 672-711); assay: SPR; cypD captured on an amine-coupled anti-cypD antibody; monomeric Aβ (Preparation C for Aβ1-40, Preparation B for Aβ1-42) injected at 1 μM for 5 min; running buffer 10 mM HEPES pH 7.4, 5 mM Na+, BSA 200 μg/mL, K+ 0-500 mM, Mg2+ 0-50 mM; 25 °C, 20 µL/min; reference-compensated response 5 min after return to buffer; settings: both partners purified
T2 construct: amyloid beta fragment 1-40 (40 amino acids), human, synthetic; numbers count on: the Aβ peptide; Used in a monomeric form (Preparation C) and an oligomeric form (Preparation A); The two forms are told apart by the assay; also called Aβ_(1–40); Aβ; source: synthetic peptide; bought: AnaSpec
T2 sequence (P05067 672-711): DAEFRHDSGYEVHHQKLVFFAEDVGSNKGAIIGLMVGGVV

B1: cyclophilin D (enzyme)
chain: not shown
notes: cyclophilin D (cypD), human, recombinant, bought from Fitzgerald; also called cypD; source: bought: Fitzgerald (human, recombinant)
- binding result (amyloid beta 1-42): binds
- binding result (amyloid beta 1-40): binds
